According to patent US20190169256A1 (YISSUM RESEARCH DEVELOPMENT COMPANY OF THE HEBREW …, published 2019):
Numbered stars: 1 amine (or outer) side, 2 acyl side, 3 side chain; on linkers, the order of the positions; unused ones are H or OH. Square brackets hold non-standard residues; d marks the D form. Suc = O=C(CCC(=O)[*:2])[*:1]; NMeV = CN[C@H](C(=O)O)C(C)C; βAla = NCCC(=O)O

Assays:
Experiment in all cases: cell-based or functional assay
Zebrafish tac3 receptor = Zebrafish tac3 receptor (zebrafish)
Tilapia tac3 receptor = Tilapia tac3 receptor (tilapia)
Salmon tac3 receptor = Salmon tac3 receptor (salmon)

Row | Binder | reduction of the NKB-induced response (CRE-Luc) (Zebrafish tac3 receptor) [%] | reduction of the NKB-induced luciferase response (CRE-Luc) (Tilapia tac3 receptor) [%] | IC50 of inhibition of slNKB-induced SRE-Luciferase activity (Salmon tac3 receptor) [nM] | reduction of the NKB-induced luciferase response (CRE-Luc) (Salmon tac3 receptor) [%]
1 | Suc-DF[NMeV][βAla]LM-NH2 (SMILES CSCC[C@H](NC(=O)[C@H](CC(C)C)NC(=O)CCNC(=O)[C@H](C(C)C)N(C)C(=O)[C@H](Cc1ccccc1)NC(=O)[C@H](CC(=O)O)NC(=O)CCC(=O)O)C(N)=O) [Ant-2] | ~60 | ~60 | 2600 | 
2 | Suc-DI[dW][NMeV][βAla]LM-NH2 (SMILES CC[C@H](C)[C@H](NC(=O)[C@H](CC(=O)O)NC(=O)CCC(=O)O)C(=O)N[C@H](Cc1c[nH]c2ccccc12)C(=O)N(C)[C@H](C(=O)NCCC(=O)N[C@@H](CC(C)C)C(=O)N[C@@H](CCSC)C(N)=O)C(C)C) [Ant-4] | ~60 | ~60 |  | ~60
3 | Suc-D[dW][NMeV][βAla]LM-NH2 (SMILES CSCC[C@H](NC(=O)[C@H](CC(C)C)NC(=O)CCNC(=O)[C@H](C(C)C)N(C)C(=O)[C@@H](Cc1c[nH]c2ccccc12)NC(=O)[C@H](CC(=O)O)NC(=O)CCC(=O)O)C(N)=O) [Ant-5] | ~60 | ~60 |  | 
4 | Suc-DS[dW][NMeV][βAla]LM-NH2 (SMILES CSCC[C@H](NC(=O)[C@H](CC(C)C)NC(=O)CCNC(=O)[C@H](C(C)C)N(C)C(=O)[C@@H](Cc1c[nH]c2ccccc12)NC(=O)[C@H](CO)NC(=O)[C@H](CC(=O)O)NC(=O)CCC(=O)O)C(N)=O) [Ant-6] | ~60 | ~60 | 870 | ~60

Next, values leading:

Row | reduction of the NKB-induced response (CRE-Luc) (Zebrafish tac3 receptor) [%] | reduction of the NKB-induced luciferase response (CRE-Luc) (Tilapia tac3 receptor) [%] | IC50 of inhibition of slNKB-induced SRE-Luciferase activity (Salmon tac3 receptor) [nM] | reduction of the NKB-induced luciferase response (CRE-Luc) (Salmon tac3 receptor) [%] | Binder
5 | ~60 | ~60 |  |  | Suc-DIF[NMeV][βAla]LM-NH2 (SMILES CC[C@H](C)[C@H](NC(=O)[C@H](CC(=O)O)NC(=O)CCC(=O)O)C(=O)N[C@@H](Cc1ccccc1)C(=O)N(C)[C@H](C(=O)NCCC(=O)N[C@@H](CC(C)C)C(=O)N[C@@H](CCSC)C(N)=O)C(C)C) [Ant-1]
6 | ~60 | ~60 | 6.16 |  | Suc-DSF[NMeV][βAla]LM-NH2 (SMILES CSCC[C@H](NC(=O)[C@H](CC(C)C)NC(=O)CCNC(=O)[C@H](C(C)C)N(C)C(=O)[C@H](Cc1ccccc1)NC(=O)[C@H](CO)NC(=O)[C@H](CC(=O)O)NC(=O)CCC(=O)O)C(N)=O) [Ant-3]
